Test results taken from article PMC4234410.

Biological target: Gallus gallus laforin (Gallus gallus) (UniProt Q5ZL46)
Assay: SEC; first pass over a HiLoad 16/60 Superdex 200 column after IMAC and tag removal; buffer C (20 mM Tris/HCl pH 7.5, 100 mM NaCl, 2 mM DTT); multimer peak, dimer and monomer species seen

How did the stoichiometry N turn out when “Gallus gallus laforin (from UniProt Q5ZL46 1-319) (enzyme)” was run?
Its stoichiometry N is 2.
